According to patent publication US10976317B2, “Systematic discovery, maturation and extension of peptide binders to proteins” (Roche Sequencing Solutions, Inc., priority 2013, dated 2021):

biological target: T1, human prostate specific antigen (PSA) (Homo sapiens, UniProt P07288); assay: PSA binding assay on 5-mer peptide array (biotin-labelled PSA, Streptavidin Cy5 staining, fluorescence signal); conditions: 5-mer Array; rank in the list of 405 sequences with the highest average signal intensity; PSA 100 ng/ml, 25° C., 12 hrs
T1 construct: biotin (chemical label, NHS-PEG4-biotin on amines)
T1 sequence (P07288 25-261): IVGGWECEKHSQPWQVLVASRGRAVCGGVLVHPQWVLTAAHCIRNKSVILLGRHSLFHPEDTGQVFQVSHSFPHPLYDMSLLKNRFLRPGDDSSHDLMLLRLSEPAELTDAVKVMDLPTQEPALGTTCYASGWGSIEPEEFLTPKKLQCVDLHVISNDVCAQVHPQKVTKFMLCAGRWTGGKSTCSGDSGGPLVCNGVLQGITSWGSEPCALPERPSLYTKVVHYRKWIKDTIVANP
Excerpt: Array Design: 5-mer array was designed by using all combinations of 18 natural amino acids excluding cysteine and methionine, any dimer or a longer repeat of the same amino acid, as well as any peptide containing HR, RH, HK, KH, RK, KR, HP, and PQ sequences to create a library of 1,360,732 unique peptides. Extension Arrays were designed by extending sequences selected from 5-mer arrays experiments by two amino acids from both N- and C-terminus using all 20 natural amino acids. Double Substitution/Deletion Arrays were designed by extension of sequences identified in the extension array experiments with glycine (G) amino acid to make them 11-mer peptides and creating a library that includes all possible single- and double substitution/deletion variants of the original sequence.
Array Synthesis: 5-mer Arrays were synthesized with 5 cycles of synthesis using a mixture of G and S amino acids in a 3:1 ratio, respectively at the N- and C-terminus of each of the 5-mer peptide. Extension and Double Substitution/Deletion Arrays were synthesized directly without using flanking wobble synthesis.
Binding Assay: PSA labelled with biotin using EZ-Link NHS-PEG4-biotinylation kit (Thermo Fisher Sci., Inc. Rockford, Ill.) was incubated in SecureSeal hybridization chamber (Grace Bio-Labs, Bend, Ore.) at concentration 100 ng/ml in 1×TE binding buffer with 1% alkali soluble casein at 25° C. for 12 hrs. Array was washed 3× with 1×TE buffer and stained with Streptavidin Cy5 in 1× binding buffer with 1% alkali soluble casein at 25° C. for 1 hr, and washed 3× with 1×TE buffer and finally with 0.1×TE buffer and scanned using a 2 micrometer MS200 scanner (Roche/Nimblegen, Madison, Wis.).
Data analysis: Image analysis and signal extraction performed using NimbleGen DEVA software, and peptides with fluorescent signal are identified. The 5-mer sequences for the binding peptides are identified and clustered based on distances using the standard BLOSUM 62 substitution matrix as implemented by an R package ‘PEPLIB’ (see, White et al., 2013, cited above). The distances of the 5-mer peptides are plotted on the first two components of a PCA plot. Consensus motifs for each cluster are reported in the graph.

Substance	rank by binding signal to PSA
RSILY	307
WEVHL	28
FEVYL	1
WTVYA	3
